{
  "source": "the nanobody polyreactivity screen of Harvey et al. (2022)",
  "data": [
    {"test": "yeast display, Sf9 membrane polyspecificity reagent, FACS + sequencing; frameworks hold sequencing errors", "how_it_was_run": "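In a synthetic yeast display library (Saccharomyces cerevisiae BJ5465), nanobody expression was induced with galactose for 36–48 hours. FACS gates were set low and high (top ~1%) using anti-HA fluorescence for expression and streptavidin fluorescence for binding of the Sf9 membrane reagent. Each polyreactivity label is drawn from the gate of origin.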", "values": [
      {"sequence": "QVQLVESGGGLVQAGGSLRLSCAASGSIFATYAMGWYRQAPGKERELVAAISRSGGSTNYADSVKGRFTISRDNAKNTVYLQMNSLKPEDTAVYYCAAVRPHWYGQGWALYWFEYWGQGTQVTVSS", "polyreactivity (PSR sort gate)": "low polyreactivity"},
      {"sequence": "QVQLVESGGGLVQAGGSLRLSCAASGSIFATYAMGWYRQAPGKERELVADISWNGGSTYYADSVKGRFTISRDNAKNTVYLQMNSLKPEDTAVYYCAVGYWGRFGFRGYGYWGQGTQVTVSS", "polyreactivity (PSR sort gate)": "low polyreactivity"},
      {"sequence": "QVQLVESGGGLVQAGGSLRLSCAASGSIFAVNAMGWYRQAPGKERELVAAISFGGGDTYYADSVKGRFTISRDNAKNTVYLQMNSLKPEDTAVYYCAADVITRGVKYLGQVAYEYWGQGTQVTVSS", "polyreactivity (PSR sort gate)": "low polyreactivity"},
      {"sequence": "QVQLVESGGGLVQAGGSLRLSCAASGSIFAVNAMGWYRQAPGKERELVAAISWRDTGTYYADSVKGRFTISRDNAKNTVYLQMNSLKPEDTAVYYCAADAQVNPYYPDEYWGQGTQVTVSS", "polyreactivity (PSR sort gate)": "low polyreactivity"},
      {"sequence": "QVQLVESGGGLVQAGGSLRLSCAASGSIFAVYAMGRYRPAPGKERELVAASSTDYADSVKGRVTISRDNAKNTVYLQMNSLKPEDTAVYYCAKVGFGIPGGFYYWGHGTQVTVSS", "polyreactivity (PSR sort gate)": "low polyreactivity"},
      {"sequence": "QVQLVESGGGLVQAGGSLRLSCAASGSIFAVYAMGWYRQAPGNERELVAVITRSGGSTYYADSVKGRFTISRDNAKNTVYLQMNSLKPEDTAVYYCAARTGYGYTRYEYWGQGTQVTVSS", "polyreactivity (PSR sort gate)": "high polyreactivity"},
      {"sequence": "QVQLVESGGGLVQAGGSLRLSCAASGSIFAWYAMGWYRQAPGKERELVATITWSGGSTYYADSVKGRFTITRDNAKNTVYLQINSLKPEDTAVYYCAAEVVGIWYDLWYQGDYWGQGTQVTVSS", "polyreactivity (PSR sort gate)": "low polyreactivity"},
      {"sequence": "QVQLVESGGGLVQAGGSLRLSCAASGSIFAYNAMGWYRQAPGKEREFVAAISLSGGRTYYADSVKGRFTISRDNAKNTVYLQMNSLKPEDTAVYYCATDGIRLTRHRDYDYWGQGTQVTVSS", "polyreactivity (PSR sort gate)": "low polyreactivity"},
      {"sequence": "QVQLVESGGGLVQAGGSLRLSCAASGSIFAYNAMGWYRQAPGKEREFVAAISQCGGRTYYADSVKGRFTISRDNAKTTVYLQMNSLKPEDTAVYYCATDGIRLTRHRDYDYWGQGTQVTVSS", "polyreactivity (PSR sort gate)": "low polyreactivity"},
      {"sequence": "QVQLVESGGGLVQAGGSLRLSCAASGSIFAYNTMGWYRQAPGKERELVAAITGRAGSTYYADSVKGRFTISRDNAKNTVYLQMNSLKPEDTAVYYCNAPTWVRGGYDYWGQGTQVTVSS", "polyreactivity (PSR sort gate)": "high polyreactivity"},
      {"sequence": "QVQLVESGGGLVQAGGSLRLSCAASGSIFAYNVMGWYRQAPGKEREFVAAISSGGRTTYADSVKGPFTISRDNAKNTVYLQMNSLKAEDTAVYYFNAYFLVHYRRLRPYEYWGQGTQVTVSS", "polyreactivity (PSR sort gate)": "low polyreactivity"},
      {"sequence": "QVQLVESGGGLVQAGGSLRLSCAASGSIFAYYAMGRNRQAPGKERELVAAITFSGVSTYYADSVKGRFTISRDNAKNTVYLQMNILKPEDTAVYYCAADPYQNYWWWYDYWGQGTQVTVSS", "polyreactivity (PSR sort gate)": "low polyreactivity"},
      {"sequence": "QVQLVESGGGLVQAGGSLRLSCAASGSIFAYYAMGWYRQAPGKERELVAAISRRAGTTYYADSVKGRFTISRDNAKNTVYLQMNSLKPEDTAVYYCAKVSSVWYPRVDYWGQGTQVTVSS", "polyreactivity (PSR sort gate)": "low polyreactivity"},
      {"sequence": "QVQLVESGGGLVQAGGSLRLSCAASGSIFAYYAMGWYRQAPGKERELVAAISRSGVSTYYADSVKGRFTISRDNAKNTVYLQMNSLKPEDTAVYYCAARWRSGFTSGDYWGQGTQVTVSS", "polyreactivity (PSR sort gate)": "low polyreactivity"},
      {"sequence": "QVQLVESGGGLVQAGGSLRLSCAASGSIFAYYAMGWYRQPPGKERELVAAISYSVDGTYYADSVKGRFTISRDNAYNTVYLQMNSLKPEDTAVYYCATQIYPLDFYQGDWNDYWGQGTQVTVSS", "polyreactivity (PSR sort gate)": "low polyreactivity"},
      {"sequence": "QVQLVESGGGLVQAGGSLRLSCAASGSIFAYYTMGWSRQAPGKERELVAAITSGGSTNYADSVKGRFTISRDNAKNTVYLQMNSLKPEDTAVYYCAVQGSRYSYRYGYRFRTMDYWGQGTQVTVSS", "polyreactivity (PSR sort gate)": "high polyreactivity"},
      {"sequence": "QVQLVESGGGLVQAGGSLRLSCAASGSIFAYYTMGWSRQAPGKERELVATISSRGGSTNYADSVKGRFTISRDNAKNTVYLQMNSLKPEDTAVYYCNTAGAADRRRAYDHDYWGQGTQVTVSS", "polyreactivity (PSR sort gate)": "high polyreactivity"},
      {"sequence": "QVQLVESGGGLVQAGGSLRLSCAASGSIFDDYAMGWSRQAPGKERELVAASSGGVSTNYADSVKGRFTISRDNAKNTVYLQMNSLKPEDTAVYYCNADYAGAYIHDYWGKGTQVTVSS", "polyreactivity (PSR sort gate)": "low polyreactivity"},
      {"sequence": "QVQLVESGGGLVQAGGSLRLSCAASGSIFDDYAMGWYRQAPGKERELVAAISWSGGRTYYADSVKGRFTISRDNAKTTVYLQMNSLKPEDTAVYDCAATTGVRSRRYYYWGQGTQVTVSS", "polyreactivity (PSR sort gate)": "low polyreactivity"},
      {"sequence": "QVQLVESGGGLVQAGGSLRLSCAASGSIFDDYAMGWYRQAPGKERELVAAITTGGGRTYYADSVKGRFTISRDNAKNTVYLQMNSLKPEDTAVYYCNAKAVRGYGTWRDGSISYGMDYWGQGTQVTVSS", "polyreactivity (PSR sort gate)": "high polyreactivity"},
      {"sequence": "QVQLVESGGGLVQAGGSLRLSCAASGSIFDDYAMGWYRQAPGKERELVAAMSWSGGRTYYADSVKGRFTISRDYAKNTVYLQMNSLNPEDTAVYYCAATTGVRSRRYYYWGQGTLVTVSS", "polyreactivity (PSR sort gate)": "low polyreactivity"},
      {"sequence": "QVQLVESGGGLVQAGGSLRLSCAASGSIFDDYAMGWYRQAPGNERELVAAITSGGSTYYADSVKGRFTISRDNAKNTVYLQMNSLKPEDTAVYYWAAPENKSDEYDYWGQGTQVTVSS", "polyreactivity (PSR sort gate)": "low polyreactivity"},
      {"sequence": "QVQLVESGGGLVQAGGSLRLSCAASGSIFDENAMGWYRQAPGKERELVAAITGSGVRTYYADSVKGRFTISRDNAKNTVYLQMNSLKPEDTAVYYCNRVKSGSYKFGYWGQGTQVTVSS", "polyreactivity (PSR sort gate)": "high polyreactivity"},
      {"sequence": "QVQLVESGGGLVQAGGSLRLSCAASGSIFDFYAMGWYRQAPGKERELVAAISWSGGNTYYADSVKGRFTISRDNAKNTVYLQMNSLKPEDTAVYYCNRGSIWRLLTGDFDYWGQGTQVTVSS", "polyreactivity (PSR sort gate)": "low polyreactivity"},
      {"sequence": "QVQLVESGGGLVQAGGSLRLSCAASGSIFDGNAMGWYRKATGKERELVAAITNSGGSTYYADSVNGRFTISPENAMNSVYLQKNSLKPEDTAVYYCNALPFAWRRYRWLRTMYYWGQGTQVTVSS", "polyreactivity (PSR sort gate)": "low polyreactivity"},
      {"sequence": "QVQLVESGGGLVQAGGSLRLSCAASGSIFDGNGMGWSRQAPGKERELVASISGDGSTNYADSVKGRFTISRDNAKNTVYLQMNSLKPEDTAVYYCATDDPLSQINEQGMDYWGQGTQVTVSS", "polyreactivity (PSR sort gate)": "low polyreactivity"},
      {"sequence": "QVQLVESGGGLVQAGGSLRLSCAASGSIFDGYGMGWSRQAPGKERELVAGITSGGSTYYADSVKGRFTISRDNAKNTVYLQMNSLKPEDTAVYYCATVVRYSNARGDYWGQGTQVTVSS", "polyreactivity (PSR sort gate)": "low polyreactivity"},
      {"sequence": "QVQLVESGGGLVQAGGSLRLSCAASGSIFDIYAMGWYRQAPGKERELVAAISLSAGSTYYADSVKGRFTISRDNAKNTVYLQMNSLKPEDTAVYYCAKDFFEHSPVSHTYSSSKYDYWGQGTQVTVSS", "polyreactivity (PSR sort gate)": "low polyreactivity"},
      {"sequence": "QVQLVESGGGLVQAGGSLRLSCAASGSIFDIYGMGWYRQAPGKERELVASISGGAGSTNYADSVKGRFTISRDTAKNTVYLQMNWLKPEDTAVYYCAAEVYVPDYFQHKFDVEYEYWGQGTQVTVSS", "polyreactivity (PSR sort gate)": "low polyreactivity"},
      {"sequence": "QVQLVESGGGLVQAGGSLRLSCAASGSIFDLYAMGWYRQAPGKERELVAGISYSGGSTYYADSVKGRFTISRDNAKNTVYLQMNSLKPEDTAVYHCADDGGWRYHPFSSLFDYWGQGTQVTVSS", "polyreactivity (PSR sort gate)": "low polyreactivity"},
      {"sequence": "QVQLVESGGGLVQAGGSLRLSCAASGSIFDNAMGWYRQAPGKERELVASIDQSGGSTYYADSVMGRFTISRDNAKNTVYLQMNSLKPEDTAVYYCAADSFTGYPYEMDYWGQGTQVTVSS", "polyreactivity (PSR sort gate)": "low polyreactivity"},
      {"sequence": "QVQLVESGGGLVQAGGSLRLSCAASGSIFDNNAMGWYRQSPGKEREFVAAISWIGGSTSYADSVKGRFTISSDNAKNTVYLQMNSLKPEDTAVYYCNSLRYYPYGLPIYDYWGQGTQVTVSS", "polyreactivity (PSR sort gate)": "low polyreactivity"},
      {"sequence": "QVQLVESGGGLVQAGGSLRLSCAASGSIFDNYALGWYRQAPGKERELVAAISWNGGDTTYADSVKGRFTISRDNAKNTVYLQMNSLKPEDTAVYYCAADLGYWVADFYWGQGTQVTVSS", "polyreactivity (PSR sort gate)": "high polyreactivity"},
      {"sequence": "QVQLVESGGGLVQAGGSLRLSCAASGSIFDPYAKGWYRQAPGKEREFVAAITGSGGSTSYADSVKGRFTISRDNAKNTVYLQMNSLKPEDTAVYYCAARRTVEWGQGTQVTVSS", "polyreactivity (PSR sort gate)": "high polyreactivity"},
      {"sequence": "QVQLVESGGGLVQAGGSLRLSCAASGSIFDPYAMGWYRQAPGKERELVAAITASGSSTYYADSVKGRFTISRDNAKNTVYLQMYSLKPEDTAVYYCAADRANWEYLLSWLGYDYWGQGTQVTVSS", "polyreactivity (PSR sort gate)": "low polyreactivity"},
      {"sequence": "QVQLVESGGGLVQAGGSLRLSCAASGSIFDPYTMGWYRQAPGKERELVAAINWSGGSTYYADSVKGRCTISRDNAKNTVYLQINSLKPEDTAVSHCNADPHGYYGYGYDYWGQGTQVNVSS", "polyreactivity (PSR sort gate)": "low polyreactivity"},
      {"sequence": "QVQLVESGGGLVQAGGSLRLSCAASGSIFDQYTMGWYRQAPGKARELVAAIRFSGGSTSYADSVKGRFTISRDNAKNTVYLQMISLKPEDTAVYYCNVDAITGGDWEDFDYWGQGTQVTVSS", "polyreactivity (PSR sort gate)": "low polyreactivity"},
      {"sequence": "QVQLVESGGGLVQAGGSLRLSCAASGSIFDRNAMGWYRQAPGKERELVAAISRSSGNTYYADSVKGRFTISRDNAKNTVYLQMNSLKPEDTAVYYCAAKPTYPKRYNYWGQGTQVTVSS", "polyreactivity (PSR sort gate)": "high polyreactivity"},
      {"sequence": "QVQLVESGGGLVQAGGSLRLSCAASGSIFDRNAMGWYRQAPGKERELVSAINSNGGITYYADSVKGRFTISRDNAKNTVYLQMNSLKPEDTAVYYCAAVIRVVYREDHCGQGTQVTVSS", "polyreactivity (PSR sort gate)": "low polyreactivity"},
      {"sequence": "QVQLVESGGGLVQAGGSLRLSCAASGSIFDRYAMGWYRQAPGKERELVAAISTGGSTNYADSVKGRFTISRDNAKNSVYLQMNSLKPEDTAVYYCAARYLYRMYYWGQGTQVTVSS", "polyreactivity (PSR sort gate)": "low polyreactivity"},
      {"sequence": "QVQLVESGGGLVQAGGSLRLSCAASGSIFDRYAMGWYRQAPGKERELVAAITTSGGSTSYADSVKGRYTISRDNAKNTVYLQMNSLIPEDTAVYYCAAGYDYVFAFLNEYDYWGQGTQVTVSS", "polyreactivity (PSR sort gate)": "low polyreactivity"},
      {"sequence": "QVQLVESGGGLVQAGGSLRLSCAASGSIFDRYDMGWYRQAPGKERELVAVINWSGGTTYYADSVKGRFTISRDNAKNTVYLQMNSLKPEDTAVYYCAADGSKPYAMDYWGQGTQVTVSS", "polyreactivity (PSR sort gate)": "high polyreactivity"},
      {"sequence": "QVQLVESGGGLVQAGGSLRLSCAASGSIFDSNAMGWYRQAPGKERELVASITSDGDTYYADSVKGRFTISRDNAKNTVYLQMNSLKPEDTAVYYCAAYVPYSGLDYWGQGTQVTVSS", "polyreactivity (PSR sort gate)": "low polyreactivity"}
    ]}
  ]
}
